According to patent US20030170252:

B1: Lambda protein phosphatase (lambda PPase) (NE BioLabs) (protein)
chain: MRYYEKIDGSKYRNIWVVGDLHGCYTNLMNKLDTIGFDNKKDLLISVGDLVDRGAENVECLELITFPWFRAVRGNHEQMMIDGLSERGNVNHWLLNGGGWFFNLDYDKEILAKALAHKADELPLIIELVSKDKKYVICHADYPFDEYEFGKPVDHQQVIWNRERISNSQNGIVKEIKGADTFIFGHTPAVKPLKFANQMYIDTGAVFCGNLTLIQVQGEGA
B2: Recombinant human Caspase-3 (Alexis Biochemicals) (protein)
chain: SGISLDNSYKMDYPEMGLCIIINNKNFHKSTGMTSRSGTDVDAANLRETFRNLKYEVRNKNDLTREEIVELMRDVSKEDHSKRSSFVCVLLSHGEEGIIFGTNGPVDLKKITNFFRGDRCRSLTGKPKLFIIQACRGTELDCGIETDSGVDDDMACHKIPVEADFLYAYSTAPGYYSWRNSKDGSWFIQSLCAMLKQYADKLEFMHILTRVNRKVATEFESFSFDATFHAKKQIPCIVSMLTKELYFYH

What was measured:
[1] = biological target: p33^QIK, quiescence induced kinase, 33-kDa Krsl-related cytoplasmic protein kinase, endogenous in mouse NIH3T3 cytosolic lysate (S20)
[2] = biological target: p35, protein kinase of 35 kDa in STSP-treated NIH3T3 cells
[3] = biological target: T1, p63^Krsl protein kinase (product of the Krsl gene), endogenous in mouse NIH3T3 cytosolic lysate (S20), Q9JI10
T1 chain: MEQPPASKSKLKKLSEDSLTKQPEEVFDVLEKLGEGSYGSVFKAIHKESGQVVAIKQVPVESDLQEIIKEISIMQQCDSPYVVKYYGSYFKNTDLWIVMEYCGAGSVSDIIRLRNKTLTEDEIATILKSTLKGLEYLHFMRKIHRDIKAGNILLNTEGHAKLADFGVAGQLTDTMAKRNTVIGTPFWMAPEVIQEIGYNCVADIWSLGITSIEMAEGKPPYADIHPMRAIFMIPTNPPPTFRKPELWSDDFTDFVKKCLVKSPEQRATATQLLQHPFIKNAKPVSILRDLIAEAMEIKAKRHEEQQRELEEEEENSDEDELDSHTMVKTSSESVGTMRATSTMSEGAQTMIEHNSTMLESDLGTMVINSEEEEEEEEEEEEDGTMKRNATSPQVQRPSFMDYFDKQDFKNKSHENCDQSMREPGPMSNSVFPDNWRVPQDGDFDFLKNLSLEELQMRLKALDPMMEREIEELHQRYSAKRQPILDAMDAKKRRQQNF

Row | Protein | kinase activity of p33^QIK in Ab-KQ immune complexes after phosphatase treatment (in-gel kinase assay, MBP substrate) [1] | kinase activity in Ab-KQ immune complexes after caspase-3 treatment (in-gel kinase assay, MBP substrate) [2] | kinase activity in Ab-KQ immune complexes after caspase-3 treatment (in-gel kinase assay, MBP substrate) [3] | kinase activity in Ab-KQ immune complexes after caspase-3 treatment (in-gel kinase assay, MBP substrate) [1]
1 | B1 | A similar result was obtained by using Lambda phosphatase in the reaction |  |  | 
2 | B2 |  | both the kinase activities of p63^Krsl and p35 decreased in correlation with an increased p33^QIK activity that was completely blocked by a wide range caspase inhibitor Z-D-CH2-DCB | both the kinase activities of p63^Krsl and p35 decreased in correlation with an increased p33^QIK activity that was completely blocked by a wide range caspase inhibitor Z-D-CH2-DCB | no change was detected in the kinase activity of p33^QIK which was isolated from osmotic-stressed quiescent cultures (FIG. 8, lanes 6 to 8) or growing cultures
